Data published in the supplement of paper PMC9170038.

What was measured:
MS2 coat protein [1] = experiment: apparent KD of MS2 coat protein; designed switch direction (-1 OFF switch, 1 ON switch): 1; higher = weaker reporter binding
How it was run: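 The buffer was Tris-HCl pH 7.5 with KCl, MgCl2, BSA, DTT, tRNA and Tween-20. In it, SNAP-549-labelled MS2 coat protein was titrated in doubling steps from 0.7 or 1.5 nM to 3 µM over chip-bound RNA switches transcribed by stalled E. coli RNA polymerase on Illumina chips. Apparent KD is the per-design median over clusters of curve fits to normalised fluorescence.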

MS2 coat protein [2] = experiment: apparent KD of MS2 coat protein; higher = weaker reporter binding; conditions: Eterna round: R107
How it was run: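 Titration buffer: 100 mM Tris-HCl pH 7.5, 80 mM KCl, 4 mM MgCl2, without or with constant ligand. Designed RNA switches transcribed on-chip from Illumina sequencing clusters received SNAP-549-labelled MS2 coat protein in twofold steps from 0.7 or 1.5 nM to 3 µM. Apparent KD is the median per design of fits to normalised cluster binding curves.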

[3] = input ligand: microRNA oligo, concentration not stated
[4] = Eterna round: R95, input ligand: microRNA oligo, concentration not stated
[5] = Eterna round: R95, input ligand: FMN 200 uM
[6] = Eterna round: R95, input ligand: none
[7] = input ligand: theophylline 20 uM
[8] = input ligand: theophylline 2 mM
[9] = input ligand: tryptophan 2.4 mM

Row | Sequence | apparent KD of MS2 coat protein (MS2 coat protein [1]; [3]) | apparent KD of MS2 coat protein (MS2 coat protein [1]; input ligand: FMN 200 uM) | apparent KD of MS2 coat protein (MS2 coat protein [1]; input ligand: none) | apparent KD of MS2 coat protein (MS2 coat protein [2]; input ligand: arginine 13.2 mM) | apparent KD of MS2 coat protein (MS2 coat protein [2]; [7]) | apparent KD of MS2 coat protein (MS2 coat protein [2]; [8]) | further results
1 | GUGGUCAGACAUGAGGAUCACCCAUGUGGAAUAAAUAAGGUUUAGGAUAUGGAAUAUAGGAUAUACCAGAAGGAAGGGUUGGUG (Eterna round: R96, puzzle: Same State NG 3) | 95.2 nM | – | – | – | – | – | –
2 | UUGAAGAACUAAGGAUAUUGAAUACAUAUGUUUAACAUGAGGAUCACCCAUGUGGGUUGCGGUGUCGAGAAGGUAGAAUAAUAG [Mat - same State NG 2 - JL mod - D96] (Eterna round: R96, puzzle: Same State NG 2) | 148 nM | 185 nM | 272 nM | – | – | – | –
3 | UUAAUCUGAACAUGAGGAUCACCCAUGUAUCUUAUUUUAGGACAGGAUAUAGAUGUUAAGAAUUACUAGAAGGGUCAGUAUAUU [JR_SSNG3_Sub011] (Eterna round: R96, puzzle: Same State NG 3) | 20.2 nM | 19.1 nM | 25.8 nM | – | – | – | –
4 | AGCUUGUGGGUAGGAUAUUUAGGAUAUGCGGAAGACUAAGUCUGUAGGUCACCUAACGCAGAAGGAGAGAAGGACCCUUCAGCA [pwkr ssNG2 2FMN + F9.30] (Eterna round: R96, puzzle: Same State NG 2) | 21.1 nM | 353 nM | 91.3 nM | – | – | – | –
5 | UGUACAUGAGGAUCACCCAUGUCUAGACAUGUUAAUAUAAUGUAGGAUAUAUAAUAUUUAAAUUAAUAGAAGGACAAUUUUUUU [JMF's solution 3] (Eterna round: R96, puzzle: Same State NG 3) | 115 nM | 147 nM | 234 nM | – | – | – | –
6 | CGAAAGAGGUGAGGAUAUGCAGAGGAUCACCCUGUAGAAGGCAUCAGGUGAGGAUAUGCAGAGGAUCACCCUGUAGAAGGCAUC [pwkr ssNG DX.12] (Eterna round: R96, puzzle: Same State NG 1) | 336 nM | 151 nM | 596 nM | – | – | – | –
7 | AAACACAGCAUAACGCUGUGACAUGAGGAUCACCCAUGUACACAGGAUAUCAUGGCAUAACGCCAUGAGAAGGGUGAUCAAGAC [Arxeerte] (Eterna round: R96, puzzle: Same State NG 3) | 2.71 nM | 20.5 nM | 55.3 nM | – | – | – | –
8 | CAGCGCUGUCGAGAGGAUAUGCAGUGAUGGACAUGAGGAUCACCCAUGUUAGCGAUAGCAUUACGGUAGAAGGCUCUACAGCUGC [Soteed - 13] (puzzle: Same State 2) | – | – | – | – | – | – | apparent KD of MS2 coat protein (MS2 coat protein [1]; [4]): 16.4 nM
9 | AAUCAACGCCGAGGAUAUCGGCCUACAUGAGGAUCACCCAUGUUGGGACAUAAAUUAAUCUCGGCUGAGAAGGCGGGAGUUGAC [Eternabot solution 38] (Eterna round: R96, puzzle: Same State NG 2) | 13.3 nM | 23 nM | 19.9 nM | – | – | – | –
10 | GUGGUCAGACAUGAGGAUCACCCAUGUGGAAUAAAUAACGACUAGGAUAUAUAAUAUAGGAUAUAAUAGAAGGAGUGAUUGGUG (Eterna round: R96, puzzle: Same State NG 3) | 49.5 nM | 72.3 nM | 58.8 nM | – | – | – | –
11 | AUAUGAGAAGCAGGAUAUGUGAAAAAAAAACAUACAGAAGGGUUUAUGGAAAAACAUGAGGAUCACCCAUGUUCUUUGUGAUGA [AK SSNG1-V2-1] (Eterna round: R96, puzzle: Same State NG 1) | 29.6 nM | – | – | – | – | – | –
12 | AACAAUCUAUCUGAGGAUAUCAUGAAAUAAACAUGAGGAUCACCCAUGUGCAGGAAAACUGCAUAUGAGAAGGCAGAUAGAUUGU [salish99_ss2_r3_058] (puzzle: Same State 2) | – | – | – | – | – | – | apparent KD of MS2 coat protein (MS2 coat protein [1]; [5]): 57.7 nM; apparent KD of MS2 coat protein (MS2 coat protein [1]; [4]): 1020 nM; apparent KD of MS2 coat protein (MS2 coat protein [1]; [6]): 1580 nM
13 | UGGAUGGUGAUAGGAUAUACAUGAGGAAUCCUCGUAGAAGGAUCACGACAUGAGGAUCACCCAUGUAGCCGUCCGUAGACGGCU [salish99_SSNG1_r04_004] (Eterna round: R96, puzzle: Same State NG 1) | 122 nM | 478 nM | 711 nM | – | – | – | –
14 | ACUUAGUACAAUUUAGAUCUACAUGAGGAUCACCCAUGUACUGAGGAUAUCAGCUCGUUUAGAGCUGAGAAGGCAGUAGUACUA [SSNG3/9-A3] (Eterna round: R96, puzzle: Same State NG 3) | 26.2 nM | 46.7 nM | 61.9 nM | – | – | – | –
15 | ACAAGCUUUUUAGGAAGUGAAGGGAGGGAACAUGAGGAUCACCCAUGUAAGUGGAAUGAAGAAGGAGCACGUCUUAU [JR_SHM208A_Sub097] (puzzle: Sensor for hsa-mir-208a) | – | – | – | – | – | – | apparent KD of MS2 coat protein (MS2 coat protein [1]; [5]): 32.7 nM; apparent KD of MS2 coat protein (MS2 coat protein [1]; [4]): 26.6 nM; apparent KD of MS2 coat protein (MS2 coat protein [1]; [6]): 43.1 nM
16 | UUUACUUUCAUAGGAUAUCAUGCGAAAAUUGCGUGAGAAGGGUGCACACUGUCUUUCUCGGAGUACAUGAGGAUCACCCAUGUG [SameState NG1 #67] (Eterna round: R96, puzzle: Same State NG 1) | 36.8 nM | 45.6 nM | 44.3 nM | – | – | – | –
17 | AUUAUUUAUGCAGGAUAUGAUUAACAUGAGGAUCACCCAUGUGGUGUUGUGAGUAAGGAGAGUGAUCAGAAGGGCAUUAUUUUU [JMF's solution 45] (Eterna round: R96, puzzle: Same State NG 2) | 214 nM | 634 nM | 355 nM | – | – | – | –
18 | GCUUGCGGCGCAGGAUAUGGGUGCCUGUACAUGAGGAUCACCCAUGUUAAGGGACGGAUUACGAACCAGAAGGGCGUGGCGGGC [Ceerce] (Eterna round: R96, puzzle: Same State NG 2) | 108 nM | 47.8 nM | 430 nM | – | – | – | –
19 | ACAUGAGGAUCACCCAUGUAGCGUAGGGAAGGAGCGGAAUAAAGUCCAGGUAGGUCGCCCAUAUGAUGAUCUCACUUAUUAUCGA [#12 Same State - Arginine A] | – | – | – | 27.7 nM | 42.5 nM | 42.2 nM | apparent KD of MS2 coat protein (MS2 coat protein [2]; input ligand: none): 31 nM; apparent KD of MS2 coat protein (MS2 coat protein [2]; [9]): 30.5 nM
20 | UCACAUGAGGAUCACCCAUGUCCAGGUGAAGGAGCGAUUAGGGAGUCAGGUAGGUCGCACCACAUGAGGAUCACCCAUGUGCCUG [EAA NP+V+V2 #8 DOUBLE] | – | – | – | 18.4 nM | 27.5 nM | 25.4 nM | apparent KD of MS2 coat protein (MS2 coat protein [2]; input ligand: none): 22.8 nM; apparent KD of MS2 coat protein (MS2 coat protein [2]; [9]): 24.1 nM
21 | UCACAUGAGGAUCACCCAUGUACAGGCGAUACCAGCCGUACAUUGGGCCCUUGGCAGCGCACCGAGGACUUUUUAAGCAUCUCGG [Diatbeen] | – | – | – | 26.2 nM | 401 nM | 282 nM | apparent KD of MS2 coat protein (MS2 coat protein [2]; input ligand: none): 19.8 nM; apparent KD of MS2 coat protein (MS2 coat protein [2]; [9]): 23.8 nM
22 | UUCGUAUUGUCGGCCGCCACUGCAACAUGAGGAUCACCCAUGUAAAUUUGGGAGUAGUUAUAUUACAGGACCGGGACAAUAGUAA [JR_ExcTryptoB_Sub019] | – | – | – | 51.8 nM | 113 nM | 140 nM | –
23 | UUCAAAGGGAACGGUGCUGGUAGCAGAGAUACCAGAGUAAUGAUACUCCCUUGGCAGCUCAGUACAUGAGGAUCACCCAUGUAAU [Exclusion Theophylline A GF24] | – | – | – | 13.8 nM | 20.2 nM | 15.9 nM | apparent KD of MS2 coat protein (MS2 coat protein [2]; input ligand: none): 13.5 nM; apparent KD of MS2 coat protein (MS2 coat protein [2]; [9]): 15.1 nM
24 | CUAUCCUUGCCGGAUGAAGGACACUGAGAAGGAGCGCGGUAAUCCGCAGGUAGGUCGCUCAGGAGUACAUGAGGAUCACCCAUGU [Xeonrave] | – | – | – | 16.1 nM | 26.9 nM | 23.7 nM | apparent KD of MS2 coat protein (MS2 coat protein [2]; input ligand: none): 20.8 nM; apparent KD of MS2 coat protein (MS2 coat protein [2]; [9]): 20.7 nM
25 | GCGGUCCACUUGGAUACCAGCAGAUUAAUAAACAUGAGGAUCACCCAUGUAAGCGCCUUGUGCCCUUGGCAGCCAGGGUGGUCAG [theeternabot_sameState_MS2_Theo_B_50] | – | – | – | 55.5 nM | 136 nM | – | apparent KD of MS2 coat protein (MS2 coat protein [2]; [9]): 88.4 nM
26 | UUAUAAGUACCGGUCCUCAGAUCCUCAUGACGAGGACCGGUACGGCCGCCACUCGAAACAUGAGGAUCACCCAUGUAAUAAUAAU [Brourdmod05] | – | – | – | 18.8 nM | 29.3 nM | 27.7 nM | –
27 | AAAUAAAUACAUGAGGAUCACCCAUGUGAAGGAGCGGCCGUUAGGCCAGGUAGGUCGCGCAUGAAUAACUCCGUGCAUAAGCACA [MAT - Exclusion Arginine A - Mod of Eli - D18] | – | – | – | 10.6 nM | 16.6 nM | 12.2 nM | apparent KD of MS2 coat protein (MS2 coat protein [2]; input ligand: none): 11.1 nM; apparent KD of MS2 coat protein (MS2 coat protein [2]; [9]): 12.3 nM
28 | AGUUUGGACUCGGCCGCCACUCGUGAUGCUUUGGCACAUGAGGAUCACCCAUGUGGUCGGCCUUAGAGGACCGGGAGUACCAGCC [Edesceso] | – | – | – | 82.5 nM | 297 nM | 342 nM | –
